Measurements reported in article PMC2855763.

Tests used:
[1] = target: VFP (vivid Verde fluorescent protein) (Cyphastrea microphthalma); experiment: SEC
[2] = target: dVFP (VFP T160A) (Cyphastrea microphthalma); experiment: SEC

Substance | stoichiometry N [1] | stoichiometry N [2]
VFP (vivid Verde fluorescent protein) (natural protein) | 2 | 
dVFP (VFP T160A) (natural protein) |  | 2
